# Data as given in paper PMC7170535, “Inter-α-inhibitor heavy chain-1 has an integrin-like 3D structure mediating immune regulatory activities and matrix stabilization during ovulation” (The Journal of Biological Chemistry, 2020).
# Numbering of substitutions follows the chain as printed.
# T1: recombinant inter-α-inhibitor heavy chain 1 (rHC1), D298A MIDAS mutant (human, UniProt P19827 35-672, D298A)
# T1 construct: source: expressed and purified as described previously (58)
# T1 sequence (looked up): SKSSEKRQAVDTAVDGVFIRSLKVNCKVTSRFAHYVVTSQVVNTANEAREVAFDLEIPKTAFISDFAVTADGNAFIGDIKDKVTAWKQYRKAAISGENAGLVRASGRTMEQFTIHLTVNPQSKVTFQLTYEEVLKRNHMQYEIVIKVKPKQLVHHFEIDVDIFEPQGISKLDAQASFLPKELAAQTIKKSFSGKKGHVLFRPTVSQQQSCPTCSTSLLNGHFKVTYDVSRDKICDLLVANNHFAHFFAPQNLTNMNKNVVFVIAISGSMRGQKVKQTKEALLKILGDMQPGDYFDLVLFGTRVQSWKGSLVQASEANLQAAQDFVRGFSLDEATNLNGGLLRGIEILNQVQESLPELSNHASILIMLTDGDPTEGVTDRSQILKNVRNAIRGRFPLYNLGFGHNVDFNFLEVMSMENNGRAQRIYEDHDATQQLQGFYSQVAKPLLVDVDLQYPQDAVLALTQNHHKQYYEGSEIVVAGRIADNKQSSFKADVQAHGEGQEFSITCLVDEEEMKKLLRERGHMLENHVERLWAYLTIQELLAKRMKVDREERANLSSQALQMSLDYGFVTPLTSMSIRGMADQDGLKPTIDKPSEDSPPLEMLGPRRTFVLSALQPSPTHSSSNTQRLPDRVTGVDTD
# B1: vitronectin (natural protein, UniProt P04004 20-478, looked up)
# chain: DQESCKGRCTEGFNVDKKCQCDELCSYYQSCCTDYTAECKPQVTRGDVFTMPEDEYTVYDDGEEKNNATVHEQVGGPSLTSDLQAQSKGNPEQTPVLKPEEEAPAPEVGASKPEGIDSRPETLHPGRPQPPAEEELCSGKPFDAFTDLKNGSLFAFRGQYCYELDEKAVRPGYPKLIRDVWGIEGPIDAAFTRINCQGKTYLFKGSQYWRFEDGVLDPDYPRNISDGFDGIPDNVDAALALPAHSYSGRERVYFFKGKQYWEYQFQHQPSQEECEGSSLSAVFEHFAMMQRDSWEDIFELLFWGRTSAGTRQPQFISRDWHGVPGQVDAAMAGRIYISGMAPRPSLAKKQRFRHRNRKGYRSQRGHSRGRNQNSRRPSRATWLSLFSSEESNLGANNYDDYRMDWLVPATCEPIQSVFFFSGDKYYRVNLRTRRVDTVDPPYPRSIAQYWLGCPAPGHL
# notes: Vitronectin; source: bought: PeproTech
# B2: recombinant inter-α-inhibitor heavy chain 1 (rHC1), ΔvWFA mutant lacking residues 288-478 (natural protein, human, UniProt P19827 35-672, looked up)
# chain: SKSSEKRQAVDTAVDGVFIRSLKVNCKVTSRFAHYVVTSQVVNTANEAREVAFDLEIPKTAFISDFAVTADGNAFIGDIKDKVTAWKQYRKAAISGENAGLVRASGRTMEQFTIHLTVNPQSKVTFQLTYEEVLKRNHMQYEIVIKVKPKQLVHHFEIDVDIFEPQGISKLDAQASFLPKELAAQTIKKSFSGKKGHVLFRPTVSQQQSCPTCSTSLLNGHFKVTYDVSRDKICDLLVANNHFAHFFAPQNLTLLVDVDLQYPQDAVLALTQNHHKQYYEGSEIVVAGRIADNKQSSFKADVQAHGEGQEFSITCLVDEEEMKKLLRERGHMLENHVERLWAYLTIQELLAKRMKVDREERANLSSQALQMSLDYGFVTPLTSMSIRGMADQDGLKPTIDKPSEDSPPLEMLGPRRTFVLSALQPSPTHSSSNTQRLPDRVTGVDTD
# notes: source: expressed and purified as described previously (58)
# B3: TGFβ2-LAP, small latent complex of TGFβ2 (complex)
# chain 1: LSTCSTLDMDQFMRKRIEAIRGQILSKLKLTSPPEDYPEPEEVPPEVISIYNSTRDLLQEKASRRAAACERERSDEEYYAKEVYKIDMPPFFPSENAIPPTFYRPYFRIVRFDVSAMEKNASNLVKAEFRVFRLQNPKARVPEQRIELYQILKSKDLTSPTQRYIDSKVVKTRAEGEWLSFDVTDAVHEWLHHKDRNLGFKISLHCPCCTFVPSNNYIIPNKSEELEARFAGIDGTSTYTSGDQKTIKSTRKKNSGKTPHLLLMLLPSYRLESQQTNRRKKR
# chain 2: ALDAAYCFRNVQDNCCLRPLYIDFKRDLGWKWIHEPKGYNANFCAGACPYLWSSDTQHSRVLSLYNTINPEASASPCCVSQDLEPLTILYYIGKTPKIEQLSNMIVKSCKCS
# B4: TGFβ3-LAP, small latent complex of TGFβ3 (complex)
# chain 1: LSTCTTLDFGHIKKKRVEAIRGQILSKLRLTSPPEPTVMTHVPYQVLALYNSTRELLEEMHGEREEGCTQENTESEYYAKEIHKFDMIQGLAEHNELAVCPKGITSKVFRFNVSSVEKNRTNLFRAEFRVLRVPNPSSKRNEQRIELFQILRPDEHIAKQRYIGGKNLPTRGTAEWLSFDVTDTVREWLLRRESNLGLEISIHCPCHTFQPNGDILENIHEVMEIKFKGVDNEDDHGRGDLGRLKKQKDHHNPHLILMMIPPHRLDNPGQGGQRKKR
# chain 2: ALDTNYCFRNLEENCCVRPLYIDFRQDLGWKWVHEPKGYYANFCSGPCPYLRSADTTHSTVLGLYNTLNPEASASPCCVPQDLEPLTILYYVGRTPKVEQLSNMVVKSCKCS
# B5: fibronectin type III repeats 13 and 14 (cFN13–14) (domain or fragment, human, UniProt P02751-1 1812-1991, looked up)
# chain: ENVSPPRRARVTDATETTITISWRTKTETITGFQVDAVPANGQTPIQRTIKPDVRSYTITGLQPGTDYKIYLYTLNDNARSSPVVIDASTAIDAPSNLRFLATTPNSLLVSWQPPRARITGYIIKYEKPGSPPREVVPRPRPGVTEATITGLEPGTEYTIYVIALKNNQKSEPLIGRKKT
# notes: Fibronectin, human, amino acid residues 1812-1991 (type III repeats 13 and 14); Mass spectrometry matched the construct with the N-terminal methionine removed; the monomeric protein was separated from dimeric cFN13–14 on heparin; source: E. coli BL21(DE3) pLysS, purified (nickel Sepharose, HisTrap HP, HiTrap heparin HP; monomeric form)
# B6: recombinant inter-α-inhibitor heavy chain 1 (rHC1), wild type (natural protein, human, UniProt P19827 35-672, looked up)
# chain: T1 sequence (looked up) with A264D
# notes: Monomer in EDTA, monomer-dimer equilibrium in Mg2+ or Mn2+; also called rHC1 (WT); WT rHC1; source: expressed and purified as described previously (58)
# Legend:
# [1] = molecular target: T1, recombinant inter-α-inhibitor heavy …; test: SPR; 1,500 RU rHC1 proteins immobilised on a C1 chip by amide cross-linking; ligand as analyte; HEPES-buffered saline pH 7.5, 0.05% Tween 20, 10 mM EDTA; 50 μl/min; multicycle kinetics, 1:1 Langmuir; conditions: both partners purified
# [2] = molecular target: B6; test: as above; conditions: both partners purified
# [3] = molecular target: T1, recombinant inter-α-inhibitor heavy …; test: SPR; 1,500 RU rHC1 proteins immobilised on a C1 chip by amide cross-linking; ligand as analyte; HEPES-buffered saline pH 7.5, 0.05% Tween 20, 2 mM Mg2+, 2 mM Mn2+; 50 μl/min; multicycle kinetics, 1:1 Langmuir; conditions: both partners purified
# [4] = molecular target: B6; test: as above; conditions: both partners purified
# [5] = molecular target: B1; test: SPR; 1,500 RU rHC1 proteins immobilised on a C1 chip by amide cross-linking; ligand as analyte; HEPES-buffered saline pH 7.5, 0.05% Tween 20, 10 mM EDTA; 50 μl/min; multicycle kinetics, 1:1 Langmuir; conditions: both partners purified
# [6] = molecular target: B2; test: SPR; 1,000 RU rHC1 proteins immobilised on a C1 chip; cFN13–14 at 7.5-120 nM as analyte; HEPES-buffered saline pH 7.4, 0.05% Tween 20, no added metal ions or EDTA; 30 μl/min; single cycle kinetics, 1:1 Langmuir; conditions: both partners purified
# [7] = molecular target: T1, recombinant inter-α-inhibitor heavy …; test: as above; conditions: both partners purified
# [8] = molecular target: B6; test: as above; conditions: both partners purified
# [9] = molecular target: the molecule itself; test: AUC; equilibrium AUC; rHC1 at 4, 11 and 22 μM with 0.1, 0.5, 1 or 5 mM MgCl2; 20 °C; global fit to a monomer–dimer model; dimer to monomers
# [10] = molecular target: the molecule itself; test: SAXS; rHC1 proteins at 1.25, 2.5 and 5.0 mg/ml in HEPES-buffered saline pH 7.5 with 5 mM MgCl2
binder,measurement,setting,value
B1,Kd,[1],0.138 nM
same,Kd,[2],0.192 nM
same,Kd,[3],0.096 nM
same,Kd,[4],0.118 nM
B2,Kd,[5],0.097 nM
B3,Kd,[3],12.9 nM
same,Kd,[4],8.8 nM
B4,Kd,[3],3.1 nM
same,Kd,[4],9.9 nM
B5,Kd,[6],16.3 nM
same,Kd,[7],15.7 nM
same,Kd,[8],14 nM
B6,Kd,[9],35300 nM
same,stoichiometry N,[10],2
